Measured values taken from the DeepSol protein solubility set.

Assay: soluble on expression in E. coli; label from the status in PepcDB or PDB records

| Sequence | soluble on expression in E. coli |
| --- | --- |
| MGSDKIHHHHHHNKNTLPDSNGTLVPVGSWYLGLSVGVGALKNPLRGQDNIPLYVLPEFRYYGERFSVENLDVSFTLYDAPAYSLELVGQQNMDGLLFPGDNRRLMASFTGMIPIRSRDVVETAVELPPLYPEHKSMSYMAGVAARYFGWFDAQVLALTDVSKVHHGYEINLSLGKQYNWKNINFEAQFGATYKSSKLTEYYYNGEYQELFYQVYNYRADSAINPYIQLSAAYDLGNNYFVSGNVRNIWLDDTIHHSPIFEDTHLLTYFIGIKKLF | not soluble |
| MSKIELKQLSFAYDNQEALLFDQANITMDTNWKLGLIGRNGRGKTTLLRLLQKQLDYQGEILHQVDFVYFPQTVAEEQQLTYYVLQEVTSFEQWKLERELTLLNVDPEVLWRPFSSLSGGEKTKVLLGLLFIEENAFPLIDEPTNHLDLAGRQQVAEYLKKKKHGFILVSHDRAFVDEVVDHILAIEKSQLTLYQGNFSIYEEQKKLRDAFELAENEKIKKEVNRLKETARKKAEWSMNREGDKYGNAKEKGSGAIFDTGAIGARAARVMKRSKHIQQRAETQLAEKEKLLKDLEYIDSLSMDYQPTHHKTLLTVEELRLGYEKNWLFAPISFSINAGEIVGITGKNGSGKSSLIQYLLDNFSGDSEGEATLAHQLTISYVRQDYEDNQGTLSEFAEKNQLDYTQFLNNLRKLGMERAVFTNRIEQMSMGQRKKVEVAKSLSQSAELYIWDEPLNYLDVFNHQQLEALILSVKPAMLVIEHDAHFMKKITDKKIVLKS | not soluble |
| MQNAEKLDFKITGGWIIDGTGAPRRRADLGVRDGRIAAIGELGAHPARHAWDASGKIVAPGFIDVHGHDDLMFVEKPDLRWKTSQGITTVVVGNCGVSAAPAPLPGNTAAALALLGETPLFADVPAYFAALDAQRPMINVAALVGHANLRLAAMRDPQAAPTAAEQQAMQDMLQAALEAGAVGFSTGLAYQPGAVAQAAELEGLARVAAERRRLHTSHIRNEADGVEAAVEEVLAIGRGTGCATVVSHHKCMMPQNWGRSRATLANIDRAREQGVEVALDIYPYPGSSTILIPERAETIDDIRITWSTPHPECSGEYLADIAARWGCDKTTAARRLAPAGAIYFAMDEDEVKRIFQHPCCMVGSDGLPNDARPHPRLWGSFTRVLGRYVREARLMTLEQAVARMTALPARVFGFAERGVLQPGAWADVVVFDPDTVADRATWDEPTLASVGIAGVLVNGAEVFPQPPADGRPGQVLRAGA | soluble |
| SNAMNIQALLSEKVSQALIAAGAPADCEPQVRQSAKVQFGDYQANGVMAVAKKLGMAPRQLAEQVLSHLDLNGIANKVEIAGPGFINIFLDPAFLADNVNRALQSERLG | soluble |
| MAHHHHHHMNIFDHQIKNVDKGNVVAILGAQWGDEGKGKIIDMLSEYSDITCRFNGGANAGHTISVNDKKYALHLLPCGVLYDNNISVLGNGMVIHVKSLMEEIESVGGKLLDRLYLSNKAHILFDIHQIIDSIQETKKLKEGKQIGTTKRGIGPCYSTKASRIGIRLGTLKNFENFKNMYSKLIDHLMDLYNITEYDKEKELNLFYNYHLKLRDRIVDVISFMNTNLENNKKVLIEGANAAMLDIDFGTYPYVTSSCTTVGGVFSGLGIHHKKLNLVVGVVKSYLTRVGCGPFLTELNNDVGQYLREKGHEYGTTTKRPRRCGWLDIPMLLYVKCINSIDMINLTKLDVLSGLEEILLCVNFKNKKTGELLEKGCYPVEEEISEEYEPVYEKFSGWKEDISTCNEFDELPENAKKYILAIEKYLKTPIVWIGVGPNRKNMIVKKNFNLN | soluble |
| MSLTLAFAYVRASTIEEVRQGSNERQKEAIRQYTYQKGYELEIFEDKAKSGRNTLRPEFERMLKSLDRRPQIVIVSKIDRFARSLSDLLKTLEYLDQNGVGFVSVNDPGIDTTTPNGRLLLQILGAFAEFERNMINSRTKAGREQAQSKGVKKGIITITTDPNSSSVDKLAAALEHHHHHH | soluble |
| MSLTTSAHKHPYKIVASDLDGTLLAPNHQLSEFSKQTLKQLHDKGFTFIFATGRHHIDVAGIREIAGIPAYMITSNGARVHDQNDQLMYSKNVPQDLVQAIIDVVKHDKQLFVHLYRNDEWMLNKEDEILRDFHEDSGFTYRVFDVNNAPTDGIAKIFFTQEDQDHEHLVQYETLLNQRFGDKLNVAFSTPWCLEVMCAGVSKGDALQAVAESLHLGLENCIAFGDGMNDVEMLSMAGKGLVMGTAHEKVFNALPDNEVIGSNADDAVAHYLHQHLFEGGSHHHHHH | soluble |
| MGSDKIHHHHHHMIVVLKPGSTEEDIRKVVKLAESYNLKCHISKGQERTVIGIIGDDRYVVADKFESLDCVESVVRVLKPYKLVSREFHPEDTVIDLGDVKIGNGYFTIIAGPCSVEGREMLMETAHFLSELGVKVLRGGAYKPRTSPYSFQGLGEKGLEYLREAADKYGMYVVTEALGEDDLPKVAEYADIIQIGARNAQNFRLLSKAGSYNKPVLLKRGFMNTIEEFLLSAEYIANSGNTKIILCERGIRTFEKATRNTLDISAVPIIRKESHLPILVDPSHSGGRRDLVIPLSRAAIAVGAHGIIVEVHPEPEKALSDGKQSLDFELFKELVQEMKKLADALGVKVN | soluble |
| MTSKQSVSQCVKPPRPPAWIMQPPPDWQTPLNGIISPSERGLEHHHHHH | not soluble |
| MYSNVQPFINSDLTNCFQSQYTEIESLLFNLLDSPVKYTKHIGGTHHFKYSTEPILDILVGVENLHDITSLDEKRLNYVGFYRLHHKYTKKVMMAKFNNFHELKQQVRLHIIQMNTQTFESYLALDYLLSTNDDIALQFNTKKHQILQHSLTIRQYEMQKQQYFEKLCKKY | not soluble |
| MQIYLSTLTELDYDKSLNSIEESFDDNPETSWQARAKVKHLRKSPCYNFELEVIAKNENNDVVGHVLLIEVEINSDDKTYYGLAIASLSVHPELRGQKLGRGLVQAVEERAKAQEYSTVVVDHCFDYFEKLGYQNAAEHDIKLEFGDAPLLVKYLWDNLTDAPHGIVKFPEHFY | not soluble |
| MGSDKIHHHHHHMIIRAGYNIAFQCFQETPINLLLSVHPSRAQHVIGEHVIKFSPDVPSHDFTDMFGNVCTRIVAPAGRIDISNDFLIEDTGLPDEVAPGAREIPVAELPDEVMVYLLGSRYCDTDKLATLAWSMFGGIPSGWQRVQAIVDYVHNHITFGYQFARNDRTASEGHAEQIGVCRDFAHLAVTLCRCMNIPARYCTGYLGDIGVPQDPAPMDFSAWFEVYLDGRWYTFDARHNHPRIGRIVIARGRDAADVAISTSFGTANLLNFEVITHEVTDQAAVTDARLQKVA | not soluble |
| MDFETNEDINGVRFTWNVFPSTRSDANSNVVPVGCLYTPLKEYDELNVAPYNPVVCSGPHCKSILNPYCVIDPRNSSWSCPICNSRNHLPPQYTNLSQENMPLELQSTTIEYITNKPVTVPPIFFFVVDLTSETENLDSLKESIITSLSLLPPNALIGLITYGNVVQLHDLSSETIDRCNVFRGDREYQLEALTEMLTGQKPTGPGGAASHLPNAMNKVTPFSLNRFFLPLEQVEFKLNQLLENLSPDQWSVPAGHRPLRATGSALNIASLLLQGCYKNIPARIILFASGPGTVAPGLIVNSELKDPLRSHHDIDSDHAQHYKKACKFYNQIAQRVAANGHTVDIFAGCYDQIGMSEMKQLTDSTGGVLLLTDAFSTAIFKQSYLRLFAKDEEGYLKMAFNGNMAVKTSKDLKVQGLIGHASAVKKTDANNISESEIGIGATSTWKMASLSPYHSYAIFFEIANTAANSNPMMSAPGSADRPHLAYTQFITTYQHSSGTNRIRVTTVANQLLPFGTPAIAASFDQEAAAVLMARIAVHKAETDDGADVIRWLDRTLIKLCQKYADYNKDDPQSFRLAPNFSLYPQFTYYLRRSQFLSVFNNSPDETAFYRHIFTREDTTNSLIMIQPTLTSFSMEDDPQPVLLDSISVKPNTILLLDTFFFILIYHGEQIAQWRKAGYQDDPQYADFKALLEEPKLEAAELLVDRFPLPRFIDTEAGGSQARFLLSKLNPSDNYQDMARGGSTIVLTDDVSLQNFMTHLQQVAVSGQA | soluble |
| MPIVRWGKTIKQELSEGWSRVIQHELTGKLDGHHGGFHETGDESMSDDLSDQARSTAVKQLKALGLSTYAARTFVALISLGEGTAQDVSEVADVPRTRVYDAADELRDRGLVDVKQSSPRRYWAISTETAGRHFEQEYDHRVTVLTNALDRLASANRSTEQQGVWTVTGRDTVTGRVVDFISSADDEVVYMTAEELLTDEIAESLSTASDRGVTIRLAEMSQSVEAQLERDVPDAQLFESAWEWSDTPAGRLLMIDQQKTLVSVLVGANGGYSLEPSDETAIWGTGQSNSLVVVLKALFAWQLANNRE | not soluble |
| MPQFTTARRARHRAEQMFALVADVEKYPQFLPMCEALSIRSRKERDGKTLLIADMTVGYKLIRETFTSQVLLKPDENIIDVKYIDGPFRYLDNRWTFRPTDGGAQCDVEFFIDYEFKSRTLGLLMGTMFDLAFKKFSEAFEKRADQIYGLGELEHHHHHH | soluble |
| MSLATEQIQHIAIVGCVHGKYREMYRQLSEYEKSTGKEISFVICTGDMQTLRYEADLVYLKVPPKYKQMGDFHLYYEGKEKAPYLTLFIGGNHESSNVLLHLYNGGFVCFNMYYLGVCSCININGLRIVGVSGIYKSFDEKKPYTYPPSPNDVVSLFHTRNYVIQMLSNLSQSSQIDISLSHDWPQGIVMKGNYKQLYRFQPGFKKDGASLGSPINKVILNTLKPKYWISGHMHCEYHAEEGPTHFIALGKIGYKNAISYLDLPLKQKTDLEYDKDWVCNLIMTWPAFSNKAQFPDLSYSISELLSKRTKELDKKIIELWEKYIGLKIIYDSEGHHHHHH | not soluble |
| MPAGTRCVTQGEAEKNGMIPTGIFCDYQNGQEMYCYSEGKPDLVISDVWAYNTTPGVYSELRALVYNHGHGYAGKFSVAFFIDGSYVGEVEVNGLGANENTVARISYPHPCEGETDTFAAQVDYHNEVDEENENDNYHESPRIFQCSGGEMPNLEVVEAYIDYQDFCRALNYRNSSIVVVVANTGEQASPQTGGWIYIDGNSRGGFDIPSLQPGEETTISMNFPYMCEGSSDEIRVVVDSRNYVVESNENDNEYTFITDCIPMPSGTADLVVSYLETHVVEELLAGGLSYPLKSEINYTVENLGEDYSCNAEVGLFIDGVFQGQQYLPPLAPGDSITRTFIAKYDWERCSGISDTLTLKADVNNDVAESNENNNERSVTLYCIEYPLIKPDLTVEDVWIEGEGASNLDIVFTVKNIGLAASRATNAYVGVNYNPAGSTPIPPLNAGESVELRISGFTAQWQENTIEVCADSGNLVDEIPNEMNNCLTKTITIEDVGCYDGVRNRDEVGVDCGGYYCVPAALLRLKGDCSIRMTMAAGFQLEHHHHHH | not soluble |
| MGSDKIHHHHHHMDRIQEMTLFAALAGQTSFTGVARHVGLSTATVTRAVASLESRLGILLVVRTTRNMRLTKAGQRFAEDCRRLLADLSEAENAAAGVHALPAGTLTVTAPQMFGALHVTPVLTRFLSEYPAVDIRAILVDRVVSMLDEGVDVAVRIGALRDSSLTAIRVGSVRRMVCASPVYLTQHGTPRHPDDLQQHATISTSAPERPPHWAFRVDDQDYSVNVASRLSLTSFQASINAALQHWGLTQVPHYQIREHLHNGRLVCVLEDFEIAPEPVHVVYSEGRRGSSRVRSFVDFCVSALREDLQFEAAG | not soluble |
| MRVFALQLESFKENLMQSLFNSIPKKSVIVLPEYVINPFFHHNMGLDVNEISDQSARAVEFLSQKCEELDLIVSAPVLLEEHSKIYKKIALISKESVKYYTQQRLIPYPHWDEESFFDNEKSAFKELLVFERDGLKFAPLFGFEAHFDEIWVQAKNQGVDVVLLSSVATFESNERWRLLCQMRAFCASCVVVRANRIGAYRQIIVEEDQKNEFLWKFYGDSFVALPNGAIEDSLEGKMGALNAQIDKNDIDEWAKLWHFRTIKEGLEHHHHHH | not soluble |
| MSSHESLFDYEATLQACARGEKQALQRLYLQESARLLGVAQRLVRDSALAEDIVHDAFLKIWTHAASFDASRGSARGWIFSVTRHLALNTLRNTAREVRVEDDGSDDHHEQATLEGWQETGDAFDWRVNPGRMISCMEQLEPVRRNCIFHAYVDGYSHQEIAQKIGAPLGTVKAWIKRSLTALRECMG | not soluble |
